The text below walks through data of publication PMC4026322.

This data set in a line: immunofluorescence in HEK293 cells (data not shown). The conditions noted are these: glycan lost; control: wild type.

B1: ABCC6: N15D (protein)
parent chain: MAAPAEPCAGQGVWNQTEPEPAATSLLSLCFLRTAGVWVPPMYLWVLGPIYLLFIHHHGRGYLRMSPLFKAKMVLGFALIVLCTSSVAVALWKIQQGTPEAPEFLIHPTVWLTTMSFAVFLIHTERKKGVQSSGVLFGYWLLCFVLPATNAAQQASGAGFQSDPVRHLSTYLCLSLVVAQFVLSCLADQPPFFPEDPQQSNPCPETGAAFPSKATFWWVSGLVWRGYRRPLRPKDLWSLGRENSSEELVSRLEKEWMRNRSAARRHNKAIAFKRKGGSGMKAPETEPFLRQEGSQWRPLLKAIWQVFHSTFLLGTLSLIISDVFRFTVPKLLSLFLEFIGDPKPPAWKGYLLAVLMFLSACLQTLFEQQNMYRLKVLQMRLRSAITGLVYRKVLALSSGSRKASAVGDVVNLVSVDVQRLTESVLYLNGLWLPLVWIVVCFVYLWQLLGPSALTAIAVFLSLLPLNFFISKKRNHHQEEQMRQKDSRARLTSSILRNSKTIKFHGWEGAFLDRVLGIRGQELGALRTSGLLFSVSLVSFQVSTFLVALVVFAVHTLVAENAMNAEKAFVTLTVLNILNKAQAFLPFSIHSLVQARVSFDRLVTFLCLEEVDPGVVDSSSSGSAAGKDCITIHSATFAWSQESPPCLHRINLTVPQGCLLAVVGPVGAGKSSLLSALLGELSKVEGFVSIEGAVAYVPQEAWVQNTSVVENVCFGQELDPPWLERVLEACALQPDVDSFPEGIHTSIGEQGMNLSGGQKQRLSLARAVYRKAAVYLLDDPLAALDAHVGQHVFNQVIGPGGLLQGTTRILVTHALHILPQADWIIVLANGAIAEMGSYQELLQRKGALMCLLDQARQPGDRGEGETEPGTSTKDPRGTSAGRRPELRRERSIKSVPEKDRTTSEAQTEVPLDDPDRAGWPAGKDSIQYGRVKATVHLAYLRAVGTPLCLYALFLFLCQQVASFCRGYWLSLWADDPAVGGQQTQAALRGGIFGLLGCLQAIGLFASMAAVLLGGARASRLLFQRLLWDVVRSPISFFERTPIGHLLNRFSKETDTVDVDIPDKLRSLLMYAFGLLEVSLVVAVATPLATVAILPLFLLYAGFQSLYVVSSCQLRRLESASYSSVCSHMAETFQGSTVVRAFRTQAPFVAQNNARVDESQRISFPRLVADRWLAANVELLGNGLVFAAATCAVLSKAHLSAGLVGFSVSAALQVTQTLQWVVRNWTDLENSIVSVERMQDYAWTPKEAPWRLPTCAAQPPWPQGGQIEFRDFGLRYRPELPLAVQGVSFKIHAGEKVGIVGRTGAGKSSLASGLLRLQEAAEGGIWIDGVPIAHVGLHTLRSRISIIPQDPILFPGSLRMNLDLLQEHSDEAIWAALETVQLKALVASLPGQLQYKCADRGEDLSVGQKQLLCLARALLRKTQILILDEATAAVDPGTELQMQAMLGSWFAQCTVLLIAHRLRSVMDCARVLVMDKGQVAESGSPAQLLAQKGLFYRLAQESGLV
On to B1, for which the localisation_or_trafficking entry was “no change”.
